In the nanobody polyreactivity screen of Harvey et al. (2022):

Experiment: yeast display, Sf9 membrane polyspecificity reagent, FACS + sequencing; frameworks hold sequencing errors
Procedure, shortened: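 Using colony PCR, genes from sorted yeast display clones were amplified, then sequenced on MiSeq at 2 × 250 and filtered by CDR length. The clones had been stained with 10% biotinylated, detergent-solubilized Sf9 membrane reagent for 1 hour at 4 °C and sorted by FACS into low and high (top ~1%) gates on anti-HA and streptavidin fluorescence. Polyreactivity labels come from the gate of origin.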

Sequence	polyreactivity (PSR sort gate)
QVQLVQSGGGLVHAGGSLRLSCAASGRIFGINAMGWYIQAPGKERELVAAINWSGGSTYYADSVKGRFTISRDNAKNTVYLQMNSLKPEDTAVYYCADQKYQRVGYWGQGTQVTVSS	high polyreactivity
QVQLVESGGGLVQAGGSLRLSCAGSGSTFWVNDMGWSRQAPGKERELVASITISTGATYYADSVKGRFTISRDTAKNTVYVQINSLKPEDTAVYYCNVEFENSGWKSFDYWGQGTQVTVSS	low polyreactivity
QVQLVESGGGLVQAGGSLRLSCAASGSTFNSYAMGWYRQAPGKERELVAAISRSGGRTYYADSVKGRFTISRDNAKNNVYLQMSSMKPEDTAVYYCAAVHNANRGYPFEYWGQGTQVTVSS	high polyreactivity
QVQLVESGGGLVQAGGSLRLSCADSGITLQSYAMGWYRQAPGKERELVAAITSGSSTHYADSVKGRFTISRYNAKYTVYLQMYSLKPEDTAVYYCAADRVYFGDLFVVYYFIQYDFWGQGTQVTVSS	low polyreactivity
QVQLVESGGGIVQAGGSLRLSCAASGSTIDKNAMGWYRQAPGKERELVAAINNGGGTTYYADSVKGRFTISRDNAKNTVFLQMNSLKPEDTAVYYCAAVGKAYWSDYQYRYYYWGQGTQVTVSS	low polyreactivity
QVQLVESGGGLVQAGGSLRLSCAASRRTFKPYAMGWYRQAPGKERELVARISGSGGSTYYADSVKGRFTISRDNAKNTVYLQMNSLKPEDTAVYYCATTPYYWFDYWGQGTQVTVSS	low polyreactivity
QVQLVESGGGLVQAGGSLRLSCAASGRIFHYYAMGWYRQAPGKERELVAGITSGGSTYYADSVKGRFTISRDNAKNTVYLQMNSLKPEDTAVYYCATTRYGGSRRYRPYDRERDYWGLGTQVTVSS	low polyreactivity
QVQLVESGGGLVQAGGSLRLSCAASGRTFAKYAMGWYRQAPGKERELVASISGRGTNTYYADSVKGRFTISRDNAKNTVYLQMNSLKPEDTAVYYCAATYVYPYRDSHYYYWGQGTQVTVSS	high polyreactivity
QVQLVESGGGLVQAGGSLRLSCSATGFIFYRYAMGWYRQAPGKERELVAAISSSGGSTYYADSVKGRFTISRDNAKTTVSLQMNSLKPEDTAVYYCNKRPQQYRPGYDYWGQGTQVTVSS	high polyreactivity
QVQLVESGGGLVQAGGSLRLSCAASGRTFYPNVMGWYRQAPGKERELVAAISRGGSTYYADSVKGRFTISRDNAKNTVYLQMNSLKPEDTAVYYCAATHYGHSISYWFDYWGQGTQVTVSS	high polyreactivity
QVQLVESGGGLVQAGGSLRLSCAASGSIFFARYAMGWYRQAPGKERELVAAITRATSTTYADSVKGRFTISRDNAKNTVYLQMNSLKPEDTAVYYCAATKIGGGSFRPYYYWGQGTQVTVSS	high polyreactivity
QVQLVESGGGLVQAGGSLRLRCAASGRIFDWYALGWNRQAPGQERELVAAITSGGSTYYADSVKGRFTISRDNAKNTVYLQMNSLKTEDTAVYYCAADLYYWGDSDYWGQGTQVTVSS	low polyreactivity
QVQLVESGGGLVQAGGSLRLSCAASGSTFSCYAMGWYRQAPGKERELVAAISSSGGTSTYADSVKARFTISRDNAKKTVYLQMNSLKPEDTAVYYCAARQYRRLRDYRHDYWGQGTQVTVSS	high polyreactivity
QVQLVESGGGLVQAGGSLRLSCAASGRIFLYYAMGWYRQAPGKERELVAAISRRGASTYYADSVKGRFTITRDNAKNNVYLQMHSLKPEDTAVYYCGTVPGKSGDYWGQGTQLTVSS	high polyreactivity
QVQLVESGGGLVQAGGSLRLSCAASGSIFKIYAMGWYRQAPGKERELVAAITINGGSTYYADSVKGRFTISRDNAKNTVYLQMNSLKPEDTAVYYCAASADWWYEYWGQGTQVNVSS	low polyreactivity
QVQLVESGGGLVQAGGSLRLSCAASGSIFYGYAMGWYRQAPGKERELVAAITDVGSTNYADSVKGRFTISRDNAKNTVYLQMNSLKPEDTAVYYCAADNYRRSSVDPFTDTMGYWGQGTQVTVSS	low polyreactivity

Sequence	polyreactivity (PSR sort gate)
QVQLVESGGGLVQAGGSLRLSCAASGIIFAQYTMGWYRQAPGKERELVAAINRNGGSTYYADSVKGRFTISRDNAKNTVYLQMNSLKPEDNAVYYCIADALGFRFDYWGQGTQVTVSS	low polyreactivity
QVQLVESGGGLVQAGGSLSVSCAASGFTFDRYAMGWYRQAPGKERELVAAISGSGDSTFYADSVKGRFTISRDNAKNTVYLQMNSLKPVDTAVYYCNAKRSFRWTYGYWGQGSQVTVSS	high polyreactivity
QVQLVESGGGLVQAGGSLRLSCAASGNIFQRYAMGWYRQAPGKERELVAAISGNGGNTFYADSVKGRFTISRDNAKNSVYLQMNSLKPEDTAVYYCNTVYVVYGYDYWGQGTQVTVSS	high polyreactivity
QVQLVESGGGLVQAGCSLRLSSPASGRIFWANVMGWYRQAPGKERELVAAISYSGTGTYYADSVKGRFTISPDYAKNTVYLQMNSLKPEDTAFYYFAKAPYIYYWGQGTHVTVSS	high polyreactivity
QVQLVESGGGLVQAGGSLRLSCAASGSILADYAMGWDRQAPGKERELVAGISSGGSTNYADSVKGRFTISRDNAKNTVYLQMNSLKPEDTAVYYCNADQDFLFIGYLFDYWGQGTQVTVSS	low polyreactivity
QVQLAESGGGLVQAGGSLRLSCAASGSTFVAYAMGWYRQAPGKERELVAAITRSGGSTYYADSVKGRFTISRDNAKNTVYLQMNSLKPEDTAVYYCAARHYRSRDGYWGQGTQVTVSS	high polyreactivity
QVQLVESGGGLVQAGGSLRLSCAAAGSTFSSYAMVWYRQAPGKERELVAAISTSGGRTYYADSVKGRFTISRDNAKNAVFLQMNSLKPEDTAVYYCAKKGICYVRYYYWGQGTLVTVSS	high polyreactivity
QVQLVESGGGLVQAGGSLRLSCAASGSIFRYNAMGWYRQEPGKERELVASINGGGGTYYPDSVKGRFTISRDNAKNTVYLQMNSLKPEDTAVLYCNTVVNSFSYASRFNFYYWGQGSQVTVSS	high polyreactivity
QVQLVESGGGLVQAGGSLRLSCAASGSTFRWYAMGWSRQAPGKERELVAAIRRIGSRTYADSVKGRFTISRDNAKNTVYLQMNSLKPEDTAVYYCATRYKYTGYDYWGQGTQVTVSS	high polyreactivity
QVQLVESGGGLVQAGGSLRLSCAASGFIFDVYAMGWYRQAPGKERELVAAISSSGGRTYYADSVKGRFTISRDNAKNTVYLQMNSLKPEDTAVYYCAAKTHSRTKVYTADYWGQGTQVTVSS	high polyreactivity
QVQLEESGGGLVQAGGSLRLSCAASGSIFFSYAMGWYRQAPGKERELVAAISSGGSTYYADSVKGRFTISRDNAKNTVYLQMNSLKPEDTAVYYCAARGYRLVPVDFYYWGQGTQVTVSS	low polyreactivity
QVQLVESGGGLVQAGGSLRLSCAASGSTFKRNAMGWYRQAPGKERELVAAISSSGGRTYYADSVKGRFTISRDNAKNTVYLQMNSLKPEDTAVYYCAAGIRTSAGYDYWGQGTQVTVSS	high polyreactivity
QVQLVESGGGLVQAGGSLRLSCAASGRTLGTNAMGWYRQAPGKERELVATISRGGITNYADSVKGRFTISRDNPKNTVYLQMNSLKPEDTAVYYCNVRYQHVYRGYGPNKYNYWGQGTQVTVSS	high polyreactivity
QDQLVESGGGLVQAGGSLRLSCAASGSIFVNYAMGWYRQAPGKERELVAAISRSGGRTYYADSVKGRFTISRDSAKITVYLQMNSLIPEDTAVYYCNVDPVLRTIEGDYWGQGTQVTVSS	high polyreactivity
QVQLVESGGGLVQAGGSLRLICAASGSIFYGYAMGWYRPAPGKERELVAAISYSGDRTYYADSVKGRFTISRDNAKNSVYLQMNSLKPEDTAVYYCAAQRRYGDDYWGQGTQVTVSS	high polyreactivity
QVQLVESGGSLVQARGSLRLSCAASGFIFPYYVMGGYRHAPGQERELVAAITCGGITYYAESVKGRFTISRDNAKNTVYFLMTSLKPEDTVVYYCAAENKYFYAWGSFVDDEYWGQGTQVTVSS	high polyreactivity
